Source: patent publication US20110152341
Residue numbers refer to the chain shown, from its start.

T1: APP-derived peptide substrate swedish (sw), H-GLTNIKTEEISEVNLDAEFRHDSGYEVHHQ-NH2
T1 chain: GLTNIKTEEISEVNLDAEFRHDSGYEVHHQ

T2: APP-derived peptide substrate D597isoD, H-GLTNIKTEEISEVKMi…-NH2
T2 chain: T1 chain with N14K, L15M, D16X

T3: APP-derived peptide substrate sw E599Q, H-GLTNIKTEEISEVNLDAQFRHDSGYEVHHQ-NH2
T3 chain: T1 chain with E18Q

T4: APP-derived peptide substrate sw D597isoD, H-GLTNIKTEEISEVNLi…-NH2
T4 chain: T1 chain with D16X

T5: APP-derived peptide substrate E599Q, H-GLTNIKTEEISEVKMDAQFRHDSGYEVHHQ-NH2
T5 chain: T1 chain with N14K, L15M, E18Q

T6: APP-derived peptide substrate wildtyp (wt), H-GLTNIKTEEISEVKMDAEFRHDSGYEVHHQ-NH2
T6 chain: T1 chain with N14K, L15M

B1: Recombinant human meprin α (R&D systems) (protein)
chain: VPIKYLPEENVHDADFGEQKDISEINLAAGLDLFQGDILLQKSRNGLRDPNTRWTFPIPYILADNLGLNAKGAILYAFEMFRLKSCVDFKPYEGESSYIIFQQFDGCWSEVGDQHVGQNISIGQGCAYKAIIEHEILHALGFYHEQSRTDRDDYVNIWWDQILSGYQHNFDTYDDSLITDLNTPYDYESLMHYQPFSFNKNASVPTITAKIPEFNSIIGQRLDFSAIDLERLNRMYNCTTTHTLLDHCTFEKANICGMIQGTRDDTDWAHQDSAQAGEVDHTLLGQCTGAGYFMQFSTSSGSAEEAALLESRILYPKRKQQCLQFFYKMTGSPSDRLVVWVRRDDSTGNVRKLVKVQTFQGDDDHNWKIAHVVLKEEQKFRYLFQGTKGDPQNSTGGIYLDDITLTETPCPTGVWTVRNFSQVLENTSKGDKLQSPRFYNSEGYGFGVTLYPNSRESSGYLRLAFHVCSGENDAILEWPVENRQVIITILDQEPDVRNRMSSSMVFTTSKSHTSPAINDTVIWDRPSRVGTYHTDCNCFRSIDLGWSGFISHQMLKRRSFLKNDDLIIFVDFEDITHLSQTEVPTKGKRLSPQGLILQGQEQQVSEEGSGKAMLEEALPVSLSQGQPSRQKRSVENTGPLEDHNWPQYFRDPCDPNPCQNDGICVNVKGMASCRCISGHAFFYTGERCQAV
B2: Human meprin β transiently overexpressed in HEK293 cells (pcDNA-hMPβ) (protein)
chain: NSIIGEKYRWPHTIPYVLEDSLEMNAKGVILNAFERYRLKTCIDFKPWAGETNYISVFKGSGCWSSVGNRRVGKQELSIGANCDRIATVQHEFLHALGFWHEQSRSDRDDYVRIMWDRILSGREHNFNTYSDDISDSLNVPYDYTSVMHYSKTAFQNGTEPTIVTRISDFEDVIGQRMDFSDSDLLKLNQLYNCSSSLSFMDSCSFELENVCGMIQSSGDNADWQRVSQVPRGPESDHSNMGQCQGSGFFMHFDSSSVNVGATAVLESRTLYPKRGFQCLQFYLYNSGSESDQLNIYIREYSADNVDGNLTLVEEIKEIPTGSWQLYHVTLKVTKKFRVVFEGRKGSGASLGGLSIDDINLSETRCPHHIWHIRNFTQFIGSPNGTLYSPPFYSSKGYAFQIYLNLAHVTNAGIYFHLISGANDDQLQWPCPWQQATMTLLDQNPDIRQRMSNQRSITTDPFMTTDNGNYFWDRPSKVGTVALFSNGTQFRRGGGYGTSAFITHERLKSRDFIKGDDVYILLTVEDISHLNSTQIQLTPAPSVQDLCSKTTCKNDGVCTVRDGKAECRCQSGEDWWYMGERCEKRGSTRDTIVIAVSSTVAVFALMLIITLVSVYCTRKKYRERMSSNRPNLTPQNQHAF
B3: Recombinant human meprin β (R&D systems) (protein)
chain: TPENFDVDGGMDQDIFDINEGLGLDLFEGDIRLDRAQIRNSIIGEKYRWPHTIPYVLEDSLEMNAKGVILNAFERYRLKTCIDFKPWAGETNYISVFKGSGCWSSVGNRRVGKQELSIGANCDRIATVQHEFLHALGFWHEQSRSDRDDYVRIMWDRILSGREHNFNTYSDDISDSLNVPYDYTSVMHYSKTAFQNGTEPTIVTRISDFEDVIGQRMDFSDSDLLKLNQLYNCSSSLSFMDSCSFELENVCGMIQSSGDNADWQRVSQVPRGPESDHSNMGQCQGSGFFMHFDSSSVNVGATAVLESRTLYPKRGFQCLQFYLYNSGSESDQLNIYIREYSADNVDGNLTLVEEIKEIPTGSWQLYHVTLKVTKKFRVVFEGRKGSGASLGGLSIDDINLSETRCPHHIWHIRNFTQFIGSPNGTLYSPPFYSSKGYAFQIYLNLAHVTNAGIYFHLISGANDDQLQWPCPWQQATMTLLDQNPDIRQRMSNQRSITTDPFMTTDNGNYFWDRPSKVGTVALFSNGTQFRRGGGYGTSAFITHERLKSRDFIKGDDVYILLTVEDISHLNSTQIQLTPAPSVQDLCSKTTCKNDGVCTVRDGKAECRCQSGEDWWYMGERCEKRGSTRDT

How the values were obtained:
[1] = target: T1, APP-derived peptide substrate swedish …
[2] = target: T2, APP-derived peptide substrate D597isoD, …
[3] = target: T3, APP-derived peptide substrate sw E599Q, …
[4] = target: T4, APP-derived peptide substrate sw …
[5] = target: T5, APP-derived peptide substrate E599Q, …
[6] = target: T6, APP-derived peptide substrate wildtyp …
[7] = target: Human APP with swedish mutation K595N, M596L overexpressed in HEK293 cells (pcDNA-hAPPsw)
[8] = target: Human APP with mutation E599Q overexpressed in HEK293 cells (pcDNA-hAPP/E3Q)
[9] = target: Human APP wildtyp transiently overexpressed in HEK293 cells (pcDNA-hAPP)

Human APP with mutation E599Q overexpressed in HEK293 cells (pcDNA-hAPP/E3Q), sequence (chain, as listed by the source E599Q): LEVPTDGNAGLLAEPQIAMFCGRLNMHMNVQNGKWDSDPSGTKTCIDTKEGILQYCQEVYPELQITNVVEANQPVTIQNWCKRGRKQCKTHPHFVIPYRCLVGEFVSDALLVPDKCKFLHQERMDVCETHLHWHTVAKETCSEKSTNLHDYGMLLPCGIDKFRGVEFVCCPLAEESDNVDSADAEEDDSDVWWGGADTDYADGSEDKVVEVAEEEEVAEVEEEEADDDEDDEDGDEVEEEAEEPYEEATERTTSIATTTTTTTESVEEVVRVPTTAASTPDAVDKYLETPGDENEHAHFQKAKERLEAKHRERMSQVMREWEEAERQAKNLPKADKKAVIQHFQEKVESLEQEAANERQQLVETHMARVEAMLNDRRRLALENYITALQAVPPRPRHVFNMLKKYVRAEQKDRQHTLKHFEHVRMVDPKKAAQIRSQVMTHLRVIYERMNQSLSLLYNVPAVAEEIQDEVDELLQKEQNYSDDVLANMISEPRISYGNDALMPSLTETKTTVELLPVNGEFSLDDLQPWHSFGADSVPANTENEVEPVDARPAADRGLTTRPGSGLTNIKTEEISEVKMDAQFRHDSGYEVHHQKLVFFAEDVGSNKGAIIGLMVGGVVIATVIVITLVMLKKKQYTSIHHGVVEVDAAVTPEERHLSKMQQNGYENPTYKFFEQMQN

| Protein | peptide cleavage, fragments by MALDI-TOF mass spectrometry (numbering according to substrate 1-30) [1] | peptide cleavage, fragments by MALDI-TOF mass spectrometry (numbering according to substrate 1-30) [2] | peptide cleavage, fragments by MALDI-TOF mass spectrometry (numbering according to substrate 1-30) [3] | peptide cleavage, fragments by MALDI-TOF mass spectrometry (numbering according to substrate 1-30) [4] | peptide cleavage, fragments by MALDI-TOF mass spectrometry (numbering according to substrate 1-30) [5] | peptide cleavage, fragments by MALDI-TOF mass spectrometry (numbering according to substrate 1-30) [6] | secreted Aβ estimated with antibody 6E10 (ELISA) [7] | amount of secreted Aβ (ELISA from IBL, non specific for the Aβ N-terminus) [8] | secreted Aβ estimated with antibody 6E10 (ELISA) [8] | amount of secreted Aβ (ELISA from IBL, non specific for the Aβ N-terminus) [9] | generated Aβ species by urea western-blot after immuno-precipitation [9] | secreted Aβ estimated with antibody 6E10 (ELISA) [9] | secretion of Aβ (ELISA, IBL kit with antibody 6E10), with and without 20 µM actinonin [9] |
| --- | --- | --- | --- | --- | --- | --- | --- | --- | --- | --- | --- | --- | --- |
| B1 | The fragments 5-30, 7-30 and 16-30 were identified. | The fragments 5-30, 7-30, 1-21, 1-15, 17-30 and 16-30 were identified. | The fragments 1-21, 7-30 and 5-30 were identified. | The fragments 5-30 and 7-30 were identified. | The fragments 5-30, 7-30, 5-21, 12-30 and 7-21 were identified. | The fragments 5-30, 7-30, 17-30 and 16-30 were identified. | – | – | – | – | – | – | – |
| B2 | – | – | – | – | – | – | Secretion of Aβ is significantly increased after transfection with pcDNA-hMPβ and pcDNA-hAPP wildtyp, swedish and E3Q. | significantly increased for APPwt and APP/E3Q | Secretion of Aβ is significantly increased after transfection with pcDNA-hMPβ and pcDNA-hAPP wildtyp, swedish and E3Q. | significantly increased for APPwt and APP/E3Q | revealed the formation of an additional Aβ species after co-transfection with hAPP and human meprin β compared to transfection with hAPP. This additional Aβ species co-migrates with Aβ3-40. | Secretion of Aβ is significantly increased after transfection with pcDNA-hMPβ and pcDNA-hAPP wildtyp, swedish and E3Q. | Secretion of Aβ is significantly increased in HEK293 after transient overexpression of hAPP and hMPβ (see FIG. 26). This increase is reduced to almost the basal level by the addition of 20 µM actinonin. |
| B3 | The fragments 16-30, 17-30 1-15 and 18-30 were identified. | The fragments 1-15, 1-16, 17-30 and 16-30 were identified. | The fragments 16-30, 1-15, 9-21 and 9-20 were identified. | The fragment 12-30 were identified. | The fragments 8-30, 9-30, 1-22, 1-21, 12-30 17-30 18-30 9-21 were identified. | The fragments 1-16, 1-15, 17-30, and 18-30 were identified. | – | – | – | – | – | – | – |
